To fix the notation:
B1: Z7 (antibody, V domains shown)
V domain 1: QVQLQESGPGLVKPSETLSLTCTVFGGSVNNPTNYWGWIRQSPGKGLEWIGSVYYTGINYYNPSLESRVTIAVVTSKNQFSLKLTSVTATDTAVYYCARHPRPETGYDFDYWGQGTLVTVSS
V domain 2: QSVLTQPPSVSAAPGQKVTISCSGSSSNIGNNYVSWYQQLPGTAPKLLLYDNNKRPSGTPDRFSGSKSGTSATLGIAGLQTGDEAVYHCATWDSSLSAEVFGGGTQVTVLG
notes: also called 克隆Z7; 人源单克隆抗体Z7
B2: Z5 (antibody, V domains shown)
VH: QVQLQESGHRLVKPSETLSLTCTVSGGSISSDPYLWGWIRQPPGKGLEWIGSIYHSGSAYYNPSLKSRVTLSVDTSRNQFSLKVNSVTATDTAVYYCVEVAPPEKWGRGILVTVSS
VL: QSALTQPPSASGSPGQSVTISCTGTSSDVGGYNYVSWYQQHPGKAPKLMIYAVNKRPSGVPDRFSGSKSGNTASLTVSRLQDDDEADYYCSSYGGSNNILFGGGTKLTVLG
notes: also called 克隆Z5; 人源单克隆抗体Z5
B3: Z6 (antibody, V domains shown)
VH: QVQLQESGPGLVKPSETLSLICTVSGGSISTRDYYWGWIRQTPGKGLEWIGSIYYSGGTYYSPSLKSRVTISVDTSKNQFSLKLRSVTAADTAVYYCARQWGNYFDHWGQGSLVTVSS
VL: DIVLTQSPSFLSASVGDRVTITCRASQGIDTYLAWYQQKPGKAPKLLIYGASTLQSGVPSRFSGSGSGTEFTLTISSLQPEDFATYYCQQLNNYHFTFGPGTKVDIKR
notes: also called 克隆Z6; 人源单克隆抗体Z6

Chain of ZIKV-E蛋白 (寨卡病毒E蛋白胞外区, C端6*His, 大肠杆菌表达复性) (A0A024B7W1 291-699, tags left off): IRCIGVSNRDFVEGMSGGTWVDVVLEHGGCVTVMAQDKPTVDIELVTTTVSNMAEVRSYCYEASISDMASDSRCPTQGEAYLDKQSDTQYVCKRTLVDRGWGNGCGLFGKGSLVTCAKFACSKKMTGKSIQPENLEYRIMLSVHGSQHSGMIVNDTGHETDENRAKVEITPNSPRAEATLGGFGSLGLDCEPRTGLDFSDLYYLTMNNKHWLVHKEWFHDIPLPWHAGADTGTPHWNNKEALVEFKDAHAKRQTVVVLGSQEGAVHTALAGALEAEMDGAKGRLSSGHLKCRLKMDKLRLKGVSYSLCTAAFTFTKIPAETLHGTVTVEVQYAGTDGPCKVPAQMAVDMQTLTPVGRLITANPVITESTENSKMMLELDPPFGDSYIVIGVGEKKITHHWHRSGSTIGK

The test has as its target ZIKV-E蛋白 (寨卡病毒E蛋白胞外区, C端6*His, 大肠杆菌表达复性) (Zika virus, UniProt A0A024B7W1 291-699). The test can be described thus: SPR, Biacore T100, antibody captured by anti-human IgG on CM5, ZIKV-E as analyte. On the technique in general: Surface plasmon resonance follows binding to a sensor surface in real time, without labels.
For the molecule B1, binding was characterised by a dissociation constant (Kd) of 0.2 nM. The value for B2 was 0.0399 nM. As to B3, binding was put at a Kd of 0.0447 nM.

Source of the values: patent publication CN106589116A (INST MICROBIOLOGY CAS, dated 2017).
